Test results as given in patent EP0866075B1, “Method to treat microbial infections by uncoupling of phosphotransferase system and appropriate agents therefor” (Arpida AG,, priority 1997, dated 1998).

Target: enzyme I (phosphoenolpyruvate-protein phosphotransferase, EC 2.7.3.9) of the E. coli phosphotransferase system (E. coli), P08839
Experiment: cell-based or functional assay

SSLRGHRWVY (modifications not checked) [peptide 17 …]
inhibition IC50: 120 µM | uncoupling Pi/peptide (x IC50/h) (Pi/peptide (x IC50/h)): 50.3
